Reference: PMC5668318

Target: 3XFLAG-Kenny LIR motif mutant (F7A/L10A) (Drosophila) (UniProt Q9GYV5)
Experiment: co-IP; anti-FLAG M2-agarose immunoprecipitation from lysates of transfected S2R+ cells, 4 °C overnight, elution with 3XFLAG peptide, blot for GFP

UniProt Q9GYV5, sequence (Q9GYV5 whole entry F7A/L10A): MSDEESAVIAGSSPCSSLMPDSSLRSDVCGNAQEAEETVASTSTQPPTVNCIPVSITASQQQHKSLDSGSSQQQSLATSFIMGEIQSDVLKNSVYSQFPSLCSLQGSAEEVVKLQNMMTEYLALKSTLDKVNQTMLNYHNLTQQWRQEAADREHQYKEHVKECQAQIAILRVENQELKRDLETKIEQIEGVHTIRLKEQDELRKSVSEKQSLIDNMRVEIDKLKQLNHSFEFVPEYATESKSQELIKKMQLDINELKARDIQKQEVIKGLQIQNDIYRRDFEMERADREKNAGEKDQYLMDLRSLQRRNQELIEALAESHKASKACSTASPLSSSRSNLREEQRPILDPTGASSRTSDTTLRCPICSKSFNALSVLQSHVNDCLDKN

percent decrease in the interaction against wild-type 3XFLAG-Kenny: 62%
Substance: eGFP-Atg8a (from UniProt Q9W2S2 1-121) (natural protein)
